US20040265808A1, “Genes involved in osteogenesis, and methods of use” (priority 2001, published 2004)

Test system: C3H10T1/2 cells
Experiment: Transient over-expression of candidate genes, cooperation with BMP2 by measurement of alkaline phosphatase
Format: cell-based, mouse
Parameters: key: +: positive or negative cooperation with BMP2; −: positive or negative cooperation with BMP2
Conditions: for Validation in vitro (coop over BMP2) C3H10T1/2: alkaline phosphatase; for Validation in C2H10T1/2 (coop over BMP2): alkaline phosphatase at 48 hours
Description: Mouse cell lines representing different stages of osteoblastic differentiation, C2C12, C2H10T1/2, ST2 and MC3T3-E1, were grown in the presence of agents capable of the induction of osteoblastic differentiation in vitro such as BMP2 and Sonic Hedgehog or in the presence of TGF beta (negative control) or with serum alone. Primary cells derived from mouse calvaria were also cultured for 0, 2, 7 14 and 21 days and RNA prepared for each time point. For example, C3H10T ½ and C2C12 can be obtained from the ATCC (Manassas, Va., USA) under the collection numbers CCL-226 and CRL-1772, respectively.
The candidates genes are cloned in expression vectors and their ability to express a protein of the expected size verified by COS cells transient transfection. The genes are then transfected in C3H10T1/2 cells and/or C2C12 cells (transient over-expression) and positive or negative cooperation with BMP2 is evaluated by the measurement of alkaline phosphatase (enzymatic assay and TaqMan) at 48 hours. Controls of positive cooperation, recombinant Sonic Hedgehog, or negative cooperation, recombinant Noggin, are included in each test.

Row | Molecule | Validation in vitro (coop over BMP2) C3H10T1/2 | Validation in C2H10T1/2 (coop over BMP2)
1 | 7 (nucleic acid, listed as Mus musculus) AATCTAGAATGAAGTCCTGCGGCCTTTTACCTTTCACGGTGCTCCTTGCTCTGGGGATCCTGGCACCCTGGACTGTGGAAGGAGGCAAAAATGATGCTATCAAAATCGGAGCCTGCCCTGCTAAAAAGCCTGCCCAGTGCCTTAAGCTTGAGAAGCCACAATGCCGTACTGACTGGGAGTGCCCGGGAAAGCAGAGGTGCTGCCAAGATGCTTGCGGTTCCAAGTGCGTGAATCCTGTTCCCATTCGCAAACCAGTGTGGAGGAAGCCTGGGAGGTGCGTCAAAACTCAGGCAAGATGTATGATGCTTAACCCTCCCAATGTCTGCCAGAGGGACGGGCAGTGTGACGGCAAATACAAGTGCTGTGAGGGTATATGTGGGAAAGTCTGCCTGCCCCCGATGACTAGTAA | + | + coop over BMP2
2 | 67 (nucleic acid, listed as Mus musculus) AATCTAGAATGGCGTTGACTGCGGATGTGGCAGGACCAGCACCTTGGGGCTTCCGAATTAGCGGGGGCAGAGATTTCCACACACCCATCATTGTGACCAAGGTCACAGAGCGGGGCAAGGCTGAAGCAGCTGATCTCCGGCCTGGCGACATCATTGTGGCCATCAATGGACAGAGTGCAGAGAACATGCTACACGCGGAGGCCCAAAGCAAGATCCGACAGAGCGCCTCACCCCTAAGACTGCAGCTGGACCGGTCCCAAACAGCCTCTCCTGGGCAGACCAATGGGGAGGGCTCCTTGGAAGTGCTGGCAACCAGATTCCAGGGCTCCCTGAGGACACACCGTGACAGCCAGTCTTCCCAGAGGTCTGCCTGCTTCAGCCCAGTCTCTCTCAGCCCCAGGCCTTGCAGCCCCTTCTCCACCCCACCCCCTACCAGCCCAGTTGCCCTTTCTAAAGAGGATATGATTGGCTGTAGTTTCCAGAGTCTGACACACTCTCCAGGCCTTGCTGCTGCTCACCACTTGACCTACCCTGGCCACCCCACCAGCCAACAGGCCGGCCACAGCAGCCCAAGCGACTCCGCAGTGAGGGTGCTGCTCCATTCCCCAGGACGGCCCTCCAGCCCTAGGTTCAGCAGTTTGGATCTGGAGGAAGACTCAGAGGTGTTCAAGATGCTGCAGGAGAACCGCCAGGGACGGGCCGCCCCAAGGCAGTCCAGCTCTTTTCGACTCTTACAGGAAGCCTTGGAGGCTGAGGAGAGAGGTGGCACACCTGCCTTTGTGCCCAGCTCGCTGAGCTCCCAGGCTTCCTTGCCCACCTCCAGGGCCTTGGCCACTCCACCCAAGCTCCACACCTGTGAGAAATGCAGCGTCAACATCTCGAACCAGGCGGTCCGCATCCAGGAGGGGAGGTACCGACACCCTGGCTGCTACACTTGCGCAGACTGTGGGCTGAACCTGAAGATGCGCGGCCACTTCTGGGTGGGCAATGAGTTGTACTGCGAGAAGCATGCCCGCCAGCGCTACTCTATGCCTGGAACTCTCAACTCTCGAGCCACTAGTAA | − | 
3 | 46 (nucleic acid, listed as Mus musculus) AATCTAGAATGGTGTCCACTAGCATCCCGGAGGTTAAAGCTCTCCGCAGCTCAGTCTCTGACTATGGGAACTATGATATCATAGTCCGGCATTACAACTACACAGGCAAGTTGAACATCGGGGCGGAGAAGGACCATGGCATTAAACTGACTTCAGTGGTGTTCATTCTCATCTGCTGCTTCATCATCCTAGAGAATATATTTGTCTTGCTAACTATTTGGAAAACCAAGAAGTTCCACCGGCCCATGTACTATTTCATAGGCAACCTAGCCCTCTCGGACCTATTAGCAGGCGTGGCTTACACAGCTAACCTGCTGTTGTCTGGGGCCACCACTTACAAGCTCACACCTGCCCAGTGGTTTCTGCGGGAAGGGAGTATGTTTGTGGCTCTCTCTGCATCAGTCTTCAGCCTCCTTGCCATCGCCATTGAGCGCTACATCACCATGCTGAAGATGAAACTACACAACGGGAGCAACAGCTCGCGCTCCTTTCTGCTGATCAGCGCCTGCTGGGTCATCTCCCTCATCCTGGGGGGCCTGCCCATCATGGGCTGGAACTGCATCAGCTCGCTGTCTAGCTGCTCCACCGTGCTCCCGCTCTACCACAAGCACTATATTCTCTTCTGCACCACCGTCTTCACTCTGCTCCTGCTTTCCATCGTCATCCTCTACTGCAGGATCTACTCCTTGGTCAGGACTCGAAGCCGCCGCCTGACCTTCCGCAAGAACATCTCCAAGGCCAGTCGCAGTTCTGAGAAGTCTCTGGCCTTGCTGAAGACGGTGATCATTGTCTTGAGTGTCTTCATTGCCTGCTGGGCCCCTCTCTTCATCCTACTACTGTTAGATGTGGGCTGCAAGGCGAAGACCTGTGACATCCTGTACAAAGCAGAGTACTTCCTGGTTCTGGCTGTGCTGAACTCAGGTACCAACCCCATCATCTACACTCTGACCAACAAGGAGATGCGCCGGGCCTTCATCCGGATCGTATCTTGTTGCAAATGCCCCAACGGAGACTCTGCTGGCAAATTCAAGAGGCCCATCATCCCAGGCATGGAATTTAGCCGCAGCAAATCAGACAACTCCTCTCACCCCCAGAAGGACGATGGGGACAACCCAGAGACCATTATGTCGTCTGGAAACGTCAATTCTTCTTCCACTAGTAA | + | + coop over BMP2
4 | 65 (nucleic acid, listed as Mus musculus) AATCTAGAATGGAGGCCAGAGCTCAGAGTGGCAACGGGTCGCAGCCTTTGCTGCAGACAGCCCATGACAGTGGCAGGCAGCGCGGGGAGCCGGATCCAAGAGATGCCCTTACCCAGCAGGTACACGTCTTGTCTCTGGATCAGATCAGAGCCATCCGAAACACCAATGAGTACACAGAGGGCCCTACTGTGGTCCCAAGACCTGGGCTCAAGCCTGCTCCTCGCCCCTCCACTCAGCACAAACATGAAAGACTCCACGGTCTGCCGGAGCACCGCCAGCCTCCCAGGCTCCAGCCCTCGCAGGTCCATTCTTCACGGGCCCCTCTGTCCAGGTCCATCAGCACTGTCAGCTCAGGGTCTCGGAGCAGTACAAGGACAAGTACCAGCAGCAGCTCCTCGGAACAGAGACTGTTAGGACCGTCCTTCTCCCACGGGCCTGCTGCTGCTGATGGAATAATCCGAGTGCAGCCTAAATCGGAGCTCAAGCCAGGTGACGTTAAGCCACTGAGCAAGGATGATTTGGGTCTGCATGCCTACAGGTGTGAGGACTGCGGCAAGTGCAAGTGTAAGGAGTGCACCTACCCGAGGCCCCTGCCGTCGGACTGGATCTGTGACAAGCAGTGCCTCTGCTCAGCCCAGAACGTCATTGACTATGGGACTTGTGTGTGCTGTGTGAAAGGTCTCTTCTATCACTGCTCCAATGACGATGAGGACAATTGTGCTGACAACCCGTGCTCTTGCAGCCAGTCCCATTGTTGTACGCGATGGTCAGCGATGGGAGTCATGTCTCTCTTTTTGCCTTGTTTATGGTGTTACCTTCCAGCCAAGGGTTGCCTTAAATTGTGCCAGGGGTGTTATGACCGAGTGAACAGGCCGGGTTGTCGTTGTAAAAACTCAAATACAGTTTGCTGCAAAGTTCCCACTGTCCCCCCTAGGAACTTTGAAAAACCAACAACTAGTAAAAGGGCGAATTCCAGCAC | + | + coop over BMP2
5 | 24 (nucleic acid, listed as Mus musculus) CGATCGATATGGCCAGCCCGCTGCGCTCCTTGCTGTTCCTGCTGGCCGTCCTGGCCGTGGCCTGGGCGGCGACCCCAAAACAAGGCCCGCGAATGTTGGGAGCCCCGGAGGAGGCAGATGCCAATGAGGAAGGCGTGCGGCGAGCGTTGGACTTCGCTGTGAGCGAGTACAACAAGGGCAGCAACGATGCGTACCACAGCCGCGCCATACAGGTGGTGAGAGCTCGTAAGCAGCTCGTGGCTGGAGTGAACTATTTTTTGGATGTGGAGATGGGCCGAACTACATGTACCAAGTCCCAGACAAATTTGACTGACTGTCCTTTCCATGACCAGCCCCATCTGATGAGGAAGGCACTCTGCTCCTTCCAGATCTACAGCGTGCCCTGGAAAGGCACACACTCCCTGACAAAATTCAGCTGCAAAAATGCCGCGGCCGCTT | − | 
6 | 48 (nucleic acid, listed as Mus musculus) AATCTAGAATGGCAGCTGCCTCTACTTCCAGCCCTGTAATTTCACAGCCCCAGTTCACAGCCATGAACGAACAACAGTGCTTCTACAATGAGTCTATCGCCTTCTTTTATAACCGGAGTGGGAAATATCTAGCCACAGAATGGAACACAGTGAGCAAGCTGGTGATGGGACTGGGCATCACTGTTTGCGTGTTCATCATGTTGGCCAATCTCCTGGTCATGGTGGCAATCTACGTCAACCGCCGCTTCCATTTCCCTATTTATTACTTGATGGCCAACCTGGCTGCTGCAGACTTCTTCGCTGGATTGGCCTACTTCTACCTGATGTTCAATACAGGACCTAATACCCGGAGACTGACTGTTAGCACGTGGCTCCTCCGGCAGGGCCTCATTGACACCAGCCTGACAGCTTCTGTGGCCAACCTGCTGGCTATTGCTATCGAGAGGCACATCACGGTTTTCCGCATGCAGCTCCATACACGAATGAGCAACCGGCGCGTGGTGGTGGTGATTGTAGTCATCTGGACTATGGCCATTGTGATGGGTGCTATACCCAGTGTGGGCTGGAACTGCATCTGTGATATCGATCACTGTTCCAACATGGCACCCCTCTACAGTGACTCCTACTTAGTCTTCTGGGCCATTTTCAACCTGGTGACCTTTGTGGTCATGGTGGTTCTCTACGCTCACATCTTTGGCTATGTTCGCCAGAGGACTATGAGGATGTCTCGGCATAGTTCTGGACCCAGGAGGAATCGGGACACCATGATGAGCCTTCTGAAGACTGTGGTCATTGTGCTTGGTGCCTTTATTGTCTGCTGGACTCCGGGATTGGTCTTGTTATTGCTGGATGTGTGCTGCCCGCAGTGCGATGTCCTGGCCTATGAGAAGTTCTTCCTCCTCCTGGCCGAGTTCAACTCTGCTATGAACCCCATCATCTACTCCTACCGCGACAAAGAGATGAGCGCCACCTTCAGGCAGATCCTGTGTTGCCAGCGCAACGAGAACCCTAATGGCCCCACGGAAGGCTCTGACCGCTCTGCCTCCTCCCTCAACCACACCATTCTGGCTGGAGTTCACAGCAACGACCACTCTGTGGTTACTAGTAA | + | + coop over BMP2
